# Laboratory results reported in US9618524B2, “Method, composition, isolation and identification of a plaque particle and related biomarker” (Plaxgen Inc., priority 2012, dated 2017).
# B1: Isoform 2 of Apolipoprotein L1 (protein)
# chain: EEAGARVQQNVPSGTDTGDPQSKPLGDWAAGTMDPESSIFIEDAIKYFKEKVSTQNLLLLLTDNEAWNGFVAAAELPRNEADELRKALDNLARQMIMKDKNWHDKGQQYRNWFLKEFPRLKSELEDNIRRLRALADGVQKVHKGTTIANVVSGSLSISSGILTLVGMGLAPFTEGGSLVLLEPGMELGITAALTGITSSTMDYGKKWWTQAQAHDLVIKSLDKLKEVREFLGENISNFLSLAGNTYQLTRGIGKDIRALRRARANLQSVPHASASRPRVTEPISAESGEQVERVNEPSILEMSRGVKLTDVAPVSFFLVLDVVYLVYESKHLHEGAKSETAEELKKVAQELEEKLNILNNNYKILQADQEL
# B2: Carboxypeptidase N subunit 2 (protein)
# chain: CPMGCDCFVQEVFCSDEELATVPLDIPPYTKNIIFVETSFTTLETRAFGSNPNLTKVVFLNTQLCQFRPDAFGGLPRLEDLEVTGSSFLNLSTNIFSNLTSLGKLTLNFNMLEALPEGLFQHLAALESLHLQGNQLQALPRRLFQPLTHLKTLNLAQNLLAQLPEELFHPLTSLQTLKLSNNALSGLPQGVFGKLGSLQELFLDSNNISELPPQVFSQLFCLERLWLQRNAITHLPLSIFASLGNLTFLSLQWNMLRVLPAGLFAHTPCLVGLSLTHNQLETVAEGTFAHLSNLRSLMLSYNAITHLPAGIFRDLEELVKLYLGSNNLTALHPALFQNLSKLELLSLSKNQLTTLPEGIFDTNYNLFNLALHGNPWQCDCHLAYLFNWLQQYTDRLLNIQTYCAGPAYLKGQVVPALNEKQLVCPVTRDHLGFQVTWPDESKAGGSWDLAVQERAARSQCTYSNPEGTVVLACDQAQCRWLNVQLSPQQGSLGLQYNASQEWDLRSSCGSLRLTVSIEARAAGP
# B3: Pigment epithelium-derived factor (protein)
# chain: QNPASPPEEGSPDPDSTGALVEEEDPFFKVPVNKLAAAVSNFGYDLYRVRSSTSPTTNVLLSPLSVATALSALSLGAEQRTESIIHRALYYDLISSPDIHGTYKELLDTVTAPQKNLKSASRIVFEKKLRIKSSFVAPLEKSYGTRPRVLTGNPRLDLQEINNWVQAQMKGKLARSTKEIPDEISILLLGVAHFKGQWVTKFDSRKTSLEDFYLDEERTVRVPMMSDPKAVLRYGLDSDLSCKIAQLPLTGSMSIIFFLPLKVTQNLTLIEESLTSEFIHDIDRELKTVQAVLTVPKLKLSYEGEVTKSLQEMKLQSLFDSPDFSKITGKPIKLTQVEHRAGFEWNEDGAGTTPSPGLQPAHLTFPLDYHLNQPFIFVLRDTDTGALLFIGKILDPRGP
# B4: Kallistatin (protein)
# chain: QLHVEHDGESCSNSSHQQILETGEGSPSLKIAPANADFAFRFYYLIASETPGKNIFFSPLSISAAYAMLSLGACSHSRSQILEGLGFNLTELSESDVHRGFQHLLHTLNLPGHGLETRVGSALFLSHNLKFLAKFLNDTMAVYEAKLFHTNFYDTVGTIQLINDHVKKETRGKIVDLVSELKKDVLMVLVNYIYFKALWEKPFISSRTTPKDFYVDENTTVRVPMMLQDQEHHWYLHDRYLPCSVLRMDYKGDATVFFILPNQGKMREIEEVLTPEMLMRWNNLLRKRNFYKKLELHLPKFSISGSYVLDQILPRLGFTDLFSKWADLSGITKQQKLEASKSFHKATLDVDEAGTEAAAATSFAIKFFSAQTNRHILRFNRPFLVVIFSTSTQSVLFLGKVVDPTKP
# B5: Leucine-rich alpha-2-glycoprotein (protein)
# chain: VTLSPKDCQVFRSDHGSSISCQPPAEIPGYLPADTVHLAVEFFNLTHLPANLLQGASKLQELHLSSNGLESLSPEFLRPVPQLRVLDLTRNALTGLPPGLFQASATLDTLVLKENQLEVLEVSWLHGLKALGHLDLSGNRLRKLPPGLLANFTLLRTLDLGENQLETLPPDLLRGPLQLERLHLEGNKLQVLGKDLLLPQPDLRYLFLNGNKLARVAAGAFQGLRQLDMLDLSNNSLASVPEGLWASLGQPNWDMRDGFDISGNPWICDQNLSDLYRWLQAQKDKMFSQNDTRCAGPEAVKGQTLLAVAKSQ
# B6: Serum amyloid A-4 protein (protein)
# chain: ESWRSFFKEALQGVGDMGRAYWDIMISNHQNSNRYLYARGNYDAAQRGPGGVWAAKLISRSRVYLQGLIDCYLFGNSSTVLEDSKSNEKAEEWGRSGKDPDRFRPDGLPKKY
# B7: Corticosteroid-binding globulin (protein)
# chain: MDPNAAYVNMSNHHRGLASANVDFAFSLYKHLVALSPKKNIFISPVSISMALAMLSLGTCGHTRAQLLQGLGFNLTERSETEIHQGFQHLHQLFAKSDTSLEMTMGNALFLDGSLELLESFSADIKHYYESEVLAMNFQDWATASRQINSYVKNKTQGKIVDLFSGLDSPAILVLVNYIFFKGTWTQPFDLASTREENFYVDETTVVKVPMMLQSSTISYLHDSELPCQLVQMNYVGNGTVFFILPDKGKMNTVIAALSRDTINRWSAGLTSSQVDLYIPKVTISGVYDLGDVLEEMGIADLFTNQANFSRITQDAQLKSSKVVHKAVLQLNEEGVDTAGSTGVTLNLTSKPIILRFNQPFIIMIFDHFTWSSLFLARVMNPV
# B8: Insulin-like growth factor-binding protein complex (protein)
# chain: ADPGTPGEAEGPACPAACVCSYDDDADELSVFCSSRNLTRLPDGVPGGTQALWLDGNNLSSVPPAAFQNLSSLGFLNLQGGQLGSLEPQALLGLENLCHLHLERNQLRSLALGTFAHTPALASLGLSNNRLSRLEDGLFEGLGSLWDLNLGWNSLAVLPDAAFRGLGSLRELVLAGNRLAYLQPALFSGLAELRELDLSRNALRAIKANVFVQLPRLQKLYLDRNLIAAVAPGAFLGLKALRWLDLSHNRVAGLLEDTFPGLLGLRVLRLSHNAIASLRPRTFKDLHFLEELQLGHNRIRQLAERSFEGLGQLEVLTLDHNQLQEVKAGAFLGLTNVAVMNLSGNCLRNLPEQVFRGLGKLHSLHLEGSCLGRIRPHTFTGLSGLRRLFLKDNGLVGIEEQSLWGLAELLELDLTSNQLTHLPHRLFQGLGKLEYLLLSRNRLAELPADALGPLQRAFWLDVSHNRLEALPNSLLAPLGRLRYLSLRNNSLRTFTPQPPGLERLWLEGNPWDCGCPLKALRDFALQNPSAVPRFVQAICEGDDCQPPAYTYNNITCASPPEVVGLDLRDLSEAHFAPC
# Target: T1, alpha-synuclein plaque particles (Homo sapiens, UniProt P37840)
# T1 construct: 140 amino acids polypeptide
# Assay: Mass spectroscopy proteomics, semi-quantitative binding affinity of serum proteins (plaqueproteome, Table 2)
# Conditions: higher number = stronger affinity
# Method in brief: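 AD-subject plasma or serum (800 μL of 50%) mixed with 30 μg preformed alpha-synuclein aggregates for 1 h at 37 °C; Thioflavin S-positive particles isolated by flow sorting. After reduction, acrylamide alkylation and overnight tryptic digestion, serum proteins identified by MS/MS with Sequest and Scaffold.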
row,Molecule,Semi-quantitative analysis of proteins binding to different plaque particles: Synuclein
1,B1,0
2,B2,2
3,B3,4
4,B4,0
5,B5,2
6,B6,1
7,B7,1
8,B8,0

# Target: T2, Abeta-42 plaque particles (Homo sapiens, UniProt P05067)
# T2 construct: Abeta 1-42
# Assay: as above
# Conditions: higher number = stronger affinity
# Method in brief: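 AD patient serum or plasma (50% in PBS) was incubated with Abeta-42 aggregates (30 μg) for 1 h at 37 °C, then stained with Thioflavin S for 30 min. Labeled particles were FACS-sorted, trypsin/Lys-C digested overnight and analyzed by MS/MS. Sequest searched human UniProt; Scaffold/Protein Prophet validated the identifications.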
row,Molecule,Semi-quantitative analysis of proteins binding to different plaque particles: Abeta-42
1,B1,0
2,B2,0
3,B3,5
4,B4,0
5,B5,2
6,B6,2
7,B7,0
8,B8,0

# System: High Density cholesterol (Chl Large) plaque particles
# Assay: as above
# Parameters: species or system human
# Conditions: higher number = stronger affinity
# Method in brief: (§1)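 Read-out is MS/MS protein identification (Sequest, strict trypsin, 20 ppm parent tolerance; Scaffold probabilities) of serum proteins bound to flow-sorted cholesterol plaque particles. These particles formed when 50% atherosclerotic serum was incubated with 30 μg cholesterol aggregates for 1 hr at 37° C.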
row,Molecule,Semi-quantitative analysis of proteins binding to different plaque particles: Chl Large
1,B1,1
2,B2,0
3,B3,4
4,B4,1
5,B5,2
6,B6,1
7,B7,2
8,B8,1

# System: Low density cholesterol (Chl small) plaque particles
# Assay: as above
# Parameters: species or system human
# Conditions: higher number = stronger affinity
# Method in brief: as §1
row,Molecule,Semi-quantitative analysis of proteins binding to different plaque particles: Chl small
1,B1,1
2,B2,1
3,B3,3
4,B4,0
5,B5,3
6,B6,1
7,B7,3
8,B8,1

# System: Tau plaque particles
# Assay: as above
# Parameters: species or system human
# Conditions: higher number = stronger affinity
# Method in brief: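 Serum or plasma proteins captured on Thioflavin S-labelled Tau plaque particles (Tau-74, Tau-275 oligomers preformed in PBS at 37° C for 2 h; 1 h co-incubation at 37° C) were isolated by FACS sorting, then tryptically digested and identified by MS/MS (Sequest, human UniProt, strict trypsin).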
row,Molecule,Semi-quantitative analysis of proteins binding to different plaque particles: Tau
1,B1,2
2,B2,1
3,B3,4
4,B4,1
5,B5,1
6,B6,4
7,B7,1
8,B8,1
